The values below come from patent publication US20260250737A1, “Engineered Luciferases and Luciferin Substrates” (Monod Bio, Inc., priority 2023, published 2026).

Holding throughout (format): biochemical
Assay [1] deals with construct containing Small Lux (SmLux), Large Lux (LgLux), FKBP and FRB. Description: LuxSit split optimization: SmLux-LgLux-FKBP-FRB construct on the surface of yeast, rapamycin-induced signal. Conditions: Table 19, LgLux variants, 50 uM substrate 1c; for Fold change upon Rap addition: 20 uM Rapamycin. The protocol: To optimize the function of the LuxSit Splits, a construct containing Small Lux (SmLux), Large Lux (LgLux) and the proteins that bind the molecule Rapamycin (FKBP and FRB), connected by GS linkers, was expressed on the surface of yeast. When 50 uM of substrate 1c is added to yeast expressing this construct, a baseline signal is observed due to SmLux and LgLux reconstitution. When 20 uM of Rapamycin is added, SmLux and LgLux are brought closer to each other by FKBP and FRB, enhancing their reconstitution. As a result, an increase in signal is observed.
Libraries of SmLux and LgLux were assembled and tested independently to identify variants with lower baseline and higher fold change.

Assay [2] concerns SmLux. In words: LgLux stability optimization: error-prone PCR LgLux mutants on yeast, protease treatment, SmLux complementation. The following applies: Table 20, EP-PCR LgLux mutants on yeast, 50 uM substrate 1c; for Fold change upon SmLux peptide addition: 200 nM SmLux. As to the method:
LgLux mutants were generated by error-prone PCR (EP-PCR) and treated with protease and their activity measured as depicted schematically in FIG. 44.
Yeast expressing a library of the LgLux mutants were incubated with proteases and screened to select variants that were stable enough to resist proteolysis. Functional variants were selected by adding 50 uM of substrate 1c and 200 nM of SmLux.
The nucleotide sequence encoding LgLux_4039 was subjected to EP-PCR to identify protease-stable mutants. The sequences (SEQ ID NOs: 2806-2814) and activity of the mutants are summarized below in Table 20.

The test system of assay [3] is SmLux. In words: Computationally generated LgLux variants expressed in E. coli, tested in lysates with SmLux and substrate 1c. The method, boiled down:
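Variants expressed in E. coli and screened as lysates, complemented with 20 uM SmLux and given 50 uM substrate 1c; luminescent activity measured.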

The mark [4] stands for this setting: Table 22, 20 uM SmLux, 50 uM substrate 1c.

Where a chain is given by its changes, count along the chain named. In names and notes the source's numbering stands.

B1: MBIO-5335: LgLux_4039 variant S2C, R11L, V46I, E54D; SEQ ID NO 2797 (protein)
chain: MCEEQIRQNLLRFYEALDSGDAITAASLFDPGVTITLWDGTTFTSIEEFREWFDSQFSTSKDALREISSLEVRGDTVEVTVRLSFTRNGQKHTVDLLQLFKFV
For the molecule B1, in assay [1], the “Baseline Signal (Normalized by expression)” value is on record as 23769.5 and the “Fold change upon Rap addition” value amounted to 1.9.

B2: LgLux_4039: Large Lux fragment of MBIO-4039 (protein)
chain: B1 chain with C2S, L11R, I46V, D54E
Regarding B2, the “Baseline Signal (Normalized by expression)” value in assay [1] is listed as 22064.6; in assay [2], 417.8; in assay [3] (50 uM substrate 1c, before SmLux peptide addition), 299.2; in assay [3] (Table 22, 50 uM substrate 1c), 1766.6. The “Fold change upon Rap addition” value in assay [1] came out at 1.9. Besides, the “Fold change upon SmLux peptide addition” value was found to be 78.5 in assay [2]; 214.43 in assay [3] (20 uM SmLux, 50 uM substrate 1c); 360.49 in assay [3] (setting [4]).

B3: SEQ ID NO 2811: LgLux_4039 EP-PCR mutant N9I, N88D (protein)
chain: B1 chain with C2S, N9I, L11R, I46V, D54E, N88D
For B3, in assay [2], the “Baseline Signal (Normalized by expression)” value turned out to be 232.7 and the “Fold change upon SmLux peptide addition” value came to 55.5.

B4: MBIO-5341: LgLux_4039 variant P31S; SEQ ID NO 2803 (protein)
chain: B1 chain with C2S, L11R, P31S, I46V, D54E
With B4, in assay [1], the “Baseline Signal (Normalized by expression)” value is recorded as 10433.7 and the “Fold change upon Rap addition” value stood at 2.2.

B5: SEQ ID NO 2806: LgLux_4039 EP-PCR mutant N9S (protein)
chain: B1 chain with C2S, N9S, L11R, I46V, D54E
Turning to B5, in assay [2], the “Baseline Signal (Normalized by expression)” value is on record as 973.7 and the “Fold change upon SmLux peptide addition” value came to 126.7.

B6: SEQ ID NO 2805: LgLux_4039 variant S19C (protein)
chain: B1 chain with C2S, L11R, S19C, I46V, D54E
Take B6: in assay [1], the “Baseline Signal (Normalized by expression)” value was found to be 3667.6 and the “Fold change upon Rap addition” value was 2.

B7: SEQ ID NO 2814: LgLux_4039 EP-PCR mutant E51V, K61T (protein)
chain: B1 chain with C2S, L11R, I46V, E51V, D54E, K61T
Regarding B7, in assay [2], the “Baseline Signal (Normalized by expression)” value stood at 934.2 and the “Fold change upon SmLux peptide addition” value was 53.1.

B8: SEQ ID NO 2813: LgLux_4039 EP-PCR mutant T34I (protein)
chain: B1 chain with C2S, L11R, T34I, I46V, D54E
On to B8, for which, in assay [2], the “Baseline Signal (Normalized by expression)” value is 241.6 and the “Fold change upon SmLux peptide addition” value was determined as 52.

B9: MBIO-5339: LgLux_4039 variant R11L, I23V; SEQ ID NO 2801 (protein)
chain: B1 chain with C2S, I23V, S45T, I46V, D54E
As for B9, in assay [1], the “Baseline Signal (Normalized by expression)” value turned out to be 28286 and the “Fold change upon Rap addition” value was 1.9.

B10: SEQ ID NO 2812: LgLux_4039 EP-PCR mutant L64F (protein)
chain: B1 chain with C2S, L11R, I46V, D54E, L64F
For the molecule B10, in assay [2], the “Baseline Signal (Normalized by expression)” value is 233.2 and the “Fold change upon SmLux peptide addition” value was 61.7.

B11: MBIO-5338: LgLux_4039 variant T41A, H92Q; SEQ ID NO 2800 (protein)
chain: B1 chain with C2S, L11R, T41A, I46V, D54E, H92Q
As to B11, in assay [1], the “Baseline Signal (Normalized by expression)” value amounted to 18945.1 and the “Fold change upon Rap addition” value was found to be 2.2.

B12: MBIO-5342: LgLux_4039 variant E54G, S55T, R87S; SEQ ID NO 2802 (protein)
chain: B1 chain with C2S, L11R, I46V, D54G, S55T, R87S
Turning to B12, in assay [1], the “Baseline Signal (Normalized by expression)” value worked out at 3361.4 and the “Fold change upon Rap addition” value is 2.

B13: SEQ ID NO 2808: LgLux_4039 EP-PCR mutant K101E (protein)
chain: B1 chain with C2S, L11R, I46V, D54E, K101E
For the molecule B13, in assay [2], the “Baseline Signal (Normalized by expression)” value was 228.3 and the “Fold change upon SmLux peptide addition” value came to 86.8.

B14: MBIO-5340: LgLux_4039 variant S2T, I6L, R11L, E48K; SEQ ID NO 2804 (protein)
chain: B1 chain with C2T, I6L, I46V, E48K, D54E
As to B14, in assay [1], the “Baseline Signal (Normalized by expression)” value stood at 6666.1 and the “Fold change upon Rap addition” value is recorded as 2.2.

B15: SEQ ID NO 2809: LgLux_4039 EP-PCR mutant N9D, V103I (protein)
chain: B1 chain with C2S, N9D, L11R, I46V, D54E, V103I
Consider B15, for which, in assay [2], the “Baseline Signal (Normalized by expression)” value worked out at 638.6 and the “Fold change upon SmLux peptide addition” value turned out to be 170.

B16: MBIO-5337: LgLux_4039 variant R11L, D30N; SEQ ID NO 2799 (protein)
chain: B1 chain with C2S, D30N, I46V, D54E
For the molecule B16, in assay [1], the “Baseline Signal (Normalized by expression)” value was 14853.7 and the “Fold change upon Rap addition” value turned out to be 2.1.

B17: SEQ ID NO 2807: LgLux_4039 EP-PCR mutant L99Q (protein)
chain: B1 chain with C2S, L11R, I46V, D54E, L99Q
As to B17, in assay [2], the “Baseline Signal (Normalized by expression)” value is recorded as 738.4 and the “Fold change upon SmLux peptide addition” value came to 83.3.

B18: MBIO-5336: LgLux_4039 variant R11L; SEQ ID NO 2798 (protein)
chain: B1 chain with C2S, I46V, D54E
With B18, in assay [1], the “Baseline Signal (Normalized by expression)” value is 16379.8 and the “Fold change upon Rap addition” value was 2.1.

B19: SEQ ID NO 2810: LgLux_4039 EP-PCR mutant F43L (protein)
chain: B1 chain with C2S, L11R, F43L, I46V, D54E
On to B19, for which, in assay [2], the “Baseline Signal (Normalized by expression)” value is listed as 327.2 and the “Fold change upon SmLux peptide addition” value is given as 81.7.

B20: MBIO-5373: computationally generated LgLux, SEQ ID NO 2788 (protein)
chain: MTPEERIANVLAFYAALASGDLEAAAALFNPGVTITLWDGTTFTSVEEFRAWFEEQFKTSKDALREIESIEVDGDTVRVLVRLTFVRDGEEKVVDLLQLFKFV
Regarding B20, the “Fold change upon SmLux peptide addition” value in assay [3] (setting [4]) amounted to 151.01. Moreover, the “Baseline Signal (Normalized by expression)” value in assay [3] (Table 22, 50 uM substrate 1c) is recorded as 388.2.

B21: MBIO-5374: computationally generated LgLux, SEQ ID NO 2789 (protein)
chain: B20 chain with L11R, N30D
Consider B21, for which the “Fold change upon SmLux peptide addition” value in assay [3] (setting [4]) came to 240.47. For the same molecule, the “Baseline Signal (Normalized by expression)” value in assay [3] (Table 22, 50 uM substrate 1c) is 796.

B22: MBIO-5371: computationally generated LgLux, SEQ ID NO 2786 (protein)
chain: MTPEERIADVLAFYAALASGDLEAAKALFNPGVTITLWDGTTFTSVEEFRAWFEEQFKTSKDALREIESIEVDGDTVRVLVRLSFTRNGQKHTVDLLQQFKFI
As to B22, in assay [3] (setting [4]), the “Fold change upon SmLux peptide addition” value was 48.58. For the same molecule, the “Baseline Signal (Normalized by expression)” value in assay [3] (Table 22, 50 uM substrate 1c) is reported as 234.6.

B23: MBIO-5375: computationally generated LgLux, SEQ ID NO 2790 (protein)
chain: B22 chain with L11R, N30D, Q99L, I103V
As for B23, the “Fold change upon SmLux peptide addition” value in assay [3] (setting [4]) was 98.41. The “Baseline Signal (Normalized by expression)” value in assay [3] (Table 22, 50 uM substrate 1c) is 207.6.

B24: MBIO-5376: computationally generated LgLux, SEQ ID NO 2791 (protein)
chain: B22 chain with L11R, N30D, Q99L
With B24, in assay [3] (setting [4]), the “Fold change upon SmLux peptide addition” value is reported as 245.29. The “Baseline Signal (Normalized by expression)” value in assay [3] (Table 22, 50 uM substrate 1c) was 409.4.

B25: MBIO-5372: computationally generated LgLux, SEQ ID NO 2787 (protein)
chain: B20 chain with N9D, A26K, L99Q, V103I
For B25, the “Fold change upon SmLux peptide addition” value in assay [3] (setting [4]) is 20.86. Further, in assay [3] (Table 22, 50 uM substrate 1c), the “Baseline Signal (Normalized by expression)” value worked out at 210.6.
